Assay results reported in PMC6944378, “Ecotin, a microbial inhibitor of serine proteases, blocks multiple complement dependent and independent microbicidal activities of human serum” (PLoS Pathogens, 2019).

T1: MASP-1 catalytic fragment (CCP1-CCP2-SP) (UniProt P48740 299-699)
T1 construct: MASP-1, active catalytic fragment containing the CCP1-CCP2-SP domains
T1 sequence: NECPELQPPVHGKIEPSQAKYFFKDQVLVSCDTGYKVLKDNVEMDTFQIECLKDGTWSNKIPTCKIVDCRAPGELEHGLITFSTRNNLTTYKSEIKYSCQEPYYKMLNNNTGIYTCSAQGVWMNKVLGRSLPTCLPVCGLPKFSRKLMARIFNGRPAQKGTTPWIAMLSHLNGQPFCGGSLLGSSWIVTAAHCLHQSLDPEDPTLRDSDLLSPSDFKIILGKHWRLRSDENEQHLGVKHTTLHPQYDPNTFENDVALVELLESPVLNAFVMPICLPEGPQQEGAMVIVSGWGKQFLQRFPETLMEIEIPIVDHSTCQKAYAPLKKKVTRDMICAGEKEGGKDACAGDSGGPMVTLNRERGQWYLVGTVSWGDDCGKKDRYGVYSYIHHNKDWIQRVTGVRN

T2: MASP-3 catalytic fragment (CCP1-CCP2-SP) (UniProt P48740-2 299-728)
T2 sequence: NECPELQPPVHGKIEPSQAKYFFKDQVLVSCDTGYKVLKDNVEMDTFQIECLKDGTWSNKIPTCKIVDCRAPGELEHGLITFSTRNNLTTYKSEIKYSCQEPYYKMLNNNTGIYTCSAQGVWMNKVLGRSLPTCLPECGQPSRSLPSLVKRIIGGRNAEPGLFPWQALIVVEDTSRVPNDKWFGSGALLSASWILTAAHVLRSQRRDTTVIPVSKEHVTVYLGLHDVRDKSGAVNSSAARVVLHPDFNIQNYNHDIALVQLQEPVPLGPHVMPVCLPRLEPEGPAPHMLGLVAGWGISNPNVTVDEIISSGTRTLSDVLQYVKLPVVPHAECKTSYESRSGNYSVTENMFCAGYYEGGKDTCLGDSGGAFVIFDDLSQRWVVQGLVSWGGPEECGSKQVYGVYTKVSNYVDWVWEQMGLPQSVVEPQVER

T3: C1s catalytic fragment (CCP1-CCP2-SP) (UniProt P09871 292-688)
T3 construct: C1s, active catalytic fragment containing the CCP1-CCP2-SP domains
T3 sequence: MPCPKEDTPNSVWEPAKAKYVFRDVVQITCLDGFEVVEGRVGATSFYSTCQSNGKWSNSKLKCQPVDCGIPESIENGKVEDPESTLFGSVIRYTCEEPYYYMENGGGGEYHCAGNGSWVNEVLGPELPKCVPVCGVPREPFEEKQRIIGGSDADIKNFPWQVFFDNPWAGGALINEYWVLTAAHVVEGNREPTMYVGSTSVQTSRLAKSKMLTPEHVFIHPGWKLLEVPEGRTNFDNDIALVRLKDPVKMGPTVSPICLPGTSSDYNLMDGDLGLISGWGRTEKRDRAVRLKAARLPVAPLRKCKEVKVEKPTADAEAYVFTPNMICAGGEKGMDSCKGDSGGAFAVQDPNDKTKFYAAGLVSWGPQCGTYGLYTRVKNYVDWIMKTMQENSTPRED

B1: L. major ecotin (ISP2) (natural protein)
chain: MPAGMSDAAGKTLADFKAPYPEPTSQQRRYVIFLDPKGDSKELNDYKVELIPGRVEKVDGTNVYRMGGNIEERTIDGWGYPYYIVTLTTMSGTLMMPLGDAALKRPRFVAMNTKNLYRYNSRLPIVVYMPKDGELRYRIWTVKSTGSGTAKSTKAREM
notes: His6-tag cleaved off with TEV protease; also called Leishmania major ISP2 ortholog; not shown: His6, N-terminal, cleaved
B2: Y. pestis ecotin (natural protein)
chain: DTPTPLNQQQPLEKIAPYPQAEKGMSRQVIFLEPQKDESRFKVELLIGKTLNVDCNRHMLGGNLETRTLSGWGFDYLVMDKISQPASTMMACPEDSKPQVKFVTANLGDAAMQRYNSRLPIVVYVPQGVEVKYRIWEAGEDIRSAQVK
notes: also called Yersinia pestis ecotin ortholog
B3: E. coli ecotin (natural protein)
chain: not shown
notes: also called recombinant E. coli ecotin
B4: P. aeruginosa ecotin (natural protein)
chain: not shown
notes: also called Pseudomonas aeruginosa ecotin ortholog

Assays:
[1] = biological target: T1, MASP-1 catalytic fragment (CCP1-CCP2-SP); test: equilibrium enzyme inhibition titration (residual activity; Green and Work); fixed protease incubated with increasing inhibitor to equilibrium; free enzyme read with 250 μM Z-L-Lys-SBzl + 500 μM DTNB; 20 mM HEPES, 145 mM NaCl, 5 mM CaCl2, 0.05% Triton X-100, pH 7.5; apparent KI corrected with KM where marked [a]; settings: both partners purified
[2] = biological target: T2, MASP-3 catalytic fragment (CCP1-CCP2-SP); test: as above; settings: both partners purified
[3] = biological target: T4, MASP-2 catalytic fragment (CCP1-CCP2-SP) (UniProt O00187 298-686); test: as above; settings: both partners purified
T4 construct: MASP-2, active catalytic fragment containing the CCP1-CCP2-SP domains

[4] = biological target: T1, MASP-1 catalytic fragment (CCP1-CCP2-SP); test: […]; 20 mM HEPES, 145 mM NaCl, 5 mM CaCl2, 0.05% Triton X-100, pH 7.5; […]; settings: both partners purified
[5] = biological target: T2, MASP-3 catalytic fragment (CCP1-CCP2-SP); test: as above; settings: both partners purified
[6] = biological target: T4, MASP-2 catalytic fragment (CCP1-CCP2-SP); test: as above; settings: both partners purified
factor D = biological target: T5, factor D (human, UniProt P00746 26-253); test: equilibrium enzyme inhibition titration (residual activity; Green and Work); fixed protease incubated with increasing inhibitor to equilibrium; free enzyme read with 250 μM Z-L-Lys-SBzl + 500 μM DTNB; 20 mM HEPES, 145 mM NaCl, 5 mM CaCl2, 0.05% Triton X-100, pH 7.5; apparent KI corrected with KM where marked [a]; settings: both partners purified
T5 construct: the KI was measured on recombinant FD; that the recombinant FD was made from it is surmised; also called FD; recombinant FD

[7] = biological target: T3, C1s catalytic fragment (CCP1-CCP2-SP); test: equilibrium enzyme inhibition titration (residual activity; Green and Work); fixed protease incubated with increasing ecotin to equilibrium; 250 μM Z-Gly-Arg-SBzl + 500 μM DTNB; 20 mM HEPES, 145 mM NaCl, 5 mM CaCl2, 0.05% Triton X-100, pH 7.5; apparent KI corrected with a KM from the literature; settings: both partners purified
[8] = biological target: T2, MASP-3 catalytic fragment (CCP1-CCP2-SP); test: cell-based or functional assay
[9] = biological target: T2, MASP-3 catalytic fragment (CCP1-CCP2-SP); test: equilibrium enzyme inhibition titration (residual activity; Green and Work); tight-binding format: fixed MASP-3 incubated with increasing ecotin to equilibrium; 250 μM Z-L-Lys-SBzl + 40 μM Thiol Fluorescent Probe IV; 20 mM HEPES, 145 mM NaCl, 5 mM CaCl2, 0.05% Triton X-100, pH 7.5; settings: both partners purified
[10] = biological target: T4, MASP-2 catalytic fragment (CCP1-CCP2-SP); test: cell-based or functional assay

T4 sequence (O00187 298-686): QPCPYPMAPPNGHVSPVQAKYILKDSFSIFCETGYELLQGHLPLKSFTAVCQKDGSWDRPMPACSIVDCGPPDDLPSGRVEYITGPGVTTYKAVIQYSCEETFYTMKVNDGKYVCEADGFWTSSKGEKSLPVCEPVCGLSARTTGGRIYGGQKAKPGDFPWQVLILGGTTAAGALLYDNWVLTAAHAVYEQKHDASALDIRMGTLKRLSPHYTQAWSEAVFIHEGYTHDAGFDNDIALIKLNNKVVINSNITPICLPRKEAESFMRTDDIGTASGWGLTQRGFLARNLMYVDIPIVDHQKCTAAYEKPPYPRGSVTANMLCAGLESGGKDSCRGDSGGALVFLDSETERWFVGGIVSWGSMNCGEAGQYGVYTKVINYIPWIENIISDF
T5 sequence (P00746 26-253): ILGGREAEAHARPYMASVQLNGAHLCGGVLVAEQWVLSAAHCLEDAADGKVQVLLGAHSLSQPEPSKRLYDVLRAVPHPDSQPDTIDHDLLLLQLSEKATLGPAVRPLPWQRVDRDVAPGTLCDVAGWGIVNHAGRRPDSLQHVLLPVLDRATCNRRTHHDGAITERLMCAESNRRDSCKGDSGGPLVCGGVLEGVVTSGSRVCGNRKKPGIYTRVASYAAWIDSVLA

Binder	Ki [1]	Ki [2]	Ki [3]	Ki [4]	Ki [5]	Ki [6]	Ki (factor D)	Ki [7]	half-life of Cy3-labelled pro-FD in NHS at 37 °C with 1 μM ecotin pre-incubated 10 min with the serum (3 hours without inhibitor) [8]	Ki [9]	IC50 of mannan-triggered LP-driven C3-deposition ELISA in 2% NHS (the most efficient LP inhibitor of the four orthologs) [10]
B1	2700 nM	4.1 nM	8.8 nM	–	–	–	–	–	–	–	–
B2	–	–	–	35000 nM	800 nM	2.2 nM	–	–	–	–	–
B3	4200 nM	–	11 nM	–	–	–	4060 nM	25200 ± 4450 nM	10 h	0.52 nM	–
B4	34 nM	9.6 nM	76 nM	–	–	–	–	–	–	–	84 to 190 nM
